For this assay, the target named is T1, LexA DNA-binding domain fusion of 4 kDa pro-fragment of human cath-D (human, UniProt P0A7C2 1-202; P07339 21-64, limits assumed).
T1 construct: also called 4 kDa pro-fragment (yeast two-hybrid bait)
T1 sequence (looked up): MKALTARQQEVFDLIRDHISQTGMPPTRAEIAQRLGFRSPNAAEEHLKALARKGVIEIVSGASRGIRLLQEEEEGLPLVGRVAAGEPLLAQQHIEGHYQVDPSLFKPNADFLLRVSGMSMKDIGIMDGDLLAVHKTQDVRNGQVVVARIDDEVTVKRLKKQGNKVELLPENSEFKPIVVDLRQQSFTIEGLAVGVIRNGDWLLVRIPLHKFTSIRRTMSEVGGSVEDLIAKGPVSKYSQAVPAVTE
As to the kind of experiment: yeast two-hybrid.

Consider 1 molecule from EP2045266A1 (INSERM (Institut National de la Santé et de la Recherche …, dated 2009).

B1: B42 activation domain fusion of LRP1β (307-479) (yeast two-hybrid clone, pYESTrp2-LRP1β (307-479)) (other, not shown: large carriers)
chain: PSGMPTCRCPTGFTGPKCTQQVCAGYCANNSTCTVNQGNQPQCRCLPGFLGDRCQYRQCSGYCENFGTCQMAADGSRQCRCTAYFEGSRCEVNKCSRCLEGACVVNKQSGDVTCNCTDGRVAPSCLTCVGHCSNGGSCTMNSKMMPECQCPPHMTGPRCEEHVFSQQQPGHIA
notes: also called the clone isolated in the screen
With B1, the binding result is “no binding”.
